# Test results published in patent US6682731.
# Target: HLA-A2 molecule (MHC class I heterodimer, no peptide of the filing added) (human)
# Assay: titration of peptide in 0.174 cell lysate, HLA-A2 stabilisation, immunoprecipitation with BB7.2
# Conditions: remark: other sources report otherwise
binder,measurement,value
"ALSRKVAEL [peptide SEQ ID NO: 2, Ala Leu Ser Arg Lys Val Ala Glu Leu]",concentration at which the peptide titrated,5 to 10 nM
